Test results reported in the DeepSol protein solubility set.

Assay: soluble on expression in E. coli; label from the status in PepcDB or PDB records

**Q.** With “MAHHHHHHMATPKQKETICEAAIVGFSFNKDRTEAVFSPNNHLLYIVSCKDIKDCSTWEIYATLEHHDQSVSATAWHGSTNRILSCSQDRTAFVWQRNAKGKWKPQMVMLDAGVKRGLTSCAWNHSGSKIYVGSAASNIAVGRFDAENEWWICRLLEGHTSTVTALAPHPSDDTLLLSGGTDGRLMLISTFMKKLDGKKSSSFGHVYLEKCFGAWVHAIAWAPSGQRFAVATHDSRVHVFDIPSVDNLSESIDEGLAIYSVSLAILPLKSLAFVLEDHLVGGGFDYFPALFQPSKKGTGWTMSGKWTMTRVKGAKTAQQIAREKFQNEARIGQAELLEEEQTRHKNTINGVLTLIDDGAAFKSAMEGPVFATASLDGRVEVWTIRDMIPII” as the sequence, how does the “soluble on expression in E. coli” value read?
**A.** not soluble

**Q.** With “MAHHHHHHMATSLSDVNHIILVLSGKGGVGKSTVACQLALALANVHGKKVGLLDVDICGPSVPTICGVTGKDVYRGDAGWEPVSLFHEQHEADTAASATGNVKIMSIAFLLPSENDAVVWRGPKKDAMIRQFVTDVHWGALDYLIIDTPPGTSDEHLTLCEVLKPFNTAGAVIVTTPQDVATDDVKKELSLCHKLELRCLGVVENMSGFVCPHCAHCTDIFSKGGGKKLAEMYEVEFLGAIPIDPTLSLAEDKGQCFVTTATDANSPTVRKTVAAVTGVIDAILKQVEKSAQLQQRH” as the sequence, how does the “soluble on expression in E. coli” value read?
**A.** soluble

**Q.** Which “soluble on expression in E. coli” value does the source give for “MAHHHHHHMATSSHRTAMSSLSAAMKQYVQQAAEDDVVCAFGPDYFHGARTGACVGSLFSATLCWYTFRLLKEDQREVDFLAGLKHGQRNPHFSTWTLLRGLRTQPMLTTGCIALATTSAMKCIKCYLANQRCREFFTDDVQFHMISELSETDLDAAAFLSTVLHNANGCGVGARNALSTLREDRSEDQPSMSPAPTASASTSTVNGLLHTHSSRLDSKEFTLTHRAPTYYDGVAVAFLGSVLDCYLPQKPVQKYYNMRVGTW” here?
**A.** not soluble

**Q.** With “MAHHHHHHMAVSINSQLKYVVNQAASVEADMNCVERVQHYTSNIEHEDLMEEIDEAIRALEKNDKKRRERKGDPITPAGITHDDDDTSTATVSVPLLEESHASDASPELSYSPADNNNHNDDNGRRENVAAGSLEFRDVTMRYRAGLPHVLCGLTFTIPAGQKVGVIGRTGSGKSSLLLTLLRVVDIEDGQIVLSGRPIRSYSLRALRQLFSMIPQDPLLFNGKVRENLDPLNVCSDAQVREAIRLVGMEDRLAAETDPLQCPVEEGGANFSVGQRQLLCMARTLLRRGCSFILMDEATANVDPTLDKQIQHVVTHVFAGHTVITIAHRLHTLATYDVILMMEEGRVVEMGSPYDLVRSADTRFAQMVRSLGESAMQEFMASTQAPTR” as the sequence, how does the “soluble on expression in E. coli” value read?
**A.** not soluble

**Q.** With “MAHHHHHHMCAYASILVVSAVHLCFCYRSHTSQSMTPAKALRLSSLPLATAWWRQHGLADRLEGFRACRQPTPRQRPLQRTADGGVSLGWAGLLAGAEQSRTSSITTATDRPPDLPLVLVSACLLSYPVTYRGTHTNLPASLRPTPLLFLTEVLFKELGLVQCVPVCPEVQWLGLPVPRVPLRLVRGSRGTDDARQRGSGWAAAQHSSSATLPSLSMSASDSVAIKGEREARYLVESSAEDHVLLRCDAPNDTFAEQSPSPQLHSAFLAQLVQDLKAVDGIILKSYSPSCGVRDARLYEEAVTSPPSSPCDQHACNACERAGKPTSASFIGRRPAASASAQRRFDLVDGFFTQQLRDFLTSMHGVGGERRADARCHSEAAAPVITCDRLLTDFYTEERLRRSPLAGKVKKRHVAGNASEAAPHLTSLDSFMESVLQHRDWRVSQHRC” as the sequence, how does the “soluble on expression in E. coli” value read?
**A.** not soluble

**Q.** Which “soluble on expression in E. coli” value does the source give for “MAHHHHHHMDARVHRSKRGCGRVLKRSRASSPEVVAEVGTGRPGDPFVLPLRSSPNGSGCHHCPEHSCDCLYVSKELERCYLSLQVSRQVTCKGRRELCAKSVLPPFVARLLRVANVTADDTFYDLGCGNGSVLFHVALATGASCVGVEINEHNAKVAKEAWTHLRPVFEKRRGRKLDVSIVCGDFCKVLKQDNYFSSSCVVWIANLLMPRFVNHYLSERLRSLPIGSRVLCMEDLYPHSRSVAAARDPDAFEKFEMVDYRWQEDSVEWSPASGPFYLYIKRS” here?
**A.** not soluble

**Q.** For “MAHHHHHHMDEKSEINYDEGADPSYSMHMSESHSAYEEVNKTSSDSEFVDDDYSKVISENNLESDNVKYNPDLYNLGKARQYLCPKVQEYGIPGQVSPYHFPYNEEDYLSNVDTEYDENGFPIRTNIDDNDNNEDNKKLWSWTNDGKLKLLCSQPIIPVSVVQGILRRDKIILIPQVEVTDVVIPKVYNQNIKHDVPTLNIEIMKSNVNIPNVKYVDKEIIIPIITGYTHKFVPKWDIHEVPRPVVKYIGEQKIVEVEVPEIKYIDKFVEREVIVDTVEKRVPKIIEVPKYVDEVKYVWKPIEKIVYVQKLIPKFDVNLECPPPLIVPYPVQRIKQISPVMVKKNNTEIPDYNYYDLNSPEGSLPIPEEYIHHYSRKQKMNKGLLSTCCDKKIVTEEEKNVQFVSVPLSNEHESVCVDEEIKKNINMSQENINTQLNNNMDNFIYDSDIKKNKDKMNSSINGKQQLYINS”, which “soluble on expression in E. coli” value is on record?
**A.** not soluble

**Q.** Which “soluble on expression in E. coli” value does the source give for “MAHHHHHHMDGGGRVAGTGVQLKPATVHGSVECVEFDKLSGSSNLFALQTMPVYFGASRVPWRLLDVGVKERKPASESGSAGAAMWLALVRFPPRGACPMPAAMGGWGVR” here?
**A.** not soluble

**Q.** For “MAHHHHHHMDKISPEILAARAKLKEKMGGNLRQIGGKGSARRKIKKVHKNSMSNEKKINLILKKIGASYFGDVDEICVYKAGDTYMEFKRPKLSASLQSNTYVVTGKFTEQKIDINKIFEGLKGNKNVDMNLLEKIKNDPNIKNLLNKENNGNAKKEEGAQEAADVPDLVENFEEVSKEEQK”, which “soluble on expression in E. coli” value is on record?
**A.** soluble

**Q.** For “MAHHHHHHMDSEETINLAVKYAKEAVVEDEKKNYKEALNLYIQSLQYFNFFCKYEKNSNIRDLILKKMEVYMTRAENLKEMLNKKDSIENKEKITNTEETKENMKKQIKQFILNKNNNIKWSDVCGLETAKEVLKEAIIFPLKFPKLFNSSTLPYKGILLYGPPGTGKTFLALACSNECNMNFFNVSSSDLVSKYQGESEKYIKCLFETAKEHSPAIIFIDEIDSLCGSRTDGENESTRRIKTEFLINMSGLTNYKNNIIVMGATNTPWSLDSGFRRRFEKRIYIPLPNIYARAKIFEKYINQNENNNISKEDIKQFATLTENYTGADIDILCRDAVYMPVKKCLLSKFFKQVKKNNKICYTPCSPGDSDPTKVEKNVMSLSENELSLPPLTVQDFKTAISNAKPSLSVDDIKKYEEWTHQYGMNGT”, which “soluble on expression in E. coli” value is on record?
**A.** not soluble

**Q.** For “MAHHHHHHMDVSQFLKSFKKNVAAKSKRSSSVRQSDEAANSGAEEDVTEIFHSASDSEADGEAEDGEVILGGRADKMAGKRYTRNMDHSKRNREFAALKVVETNSVPAVEAGRFQRQRAALARQATDARKPPRTEMIASVRAELLRQREKLRGSNALDSANQLDASVQKMETTMIEVEDLLQASAPTAATSASVLDFLPAAPLPAPRQATLTTASRAASIAVALSEPQPPSSSVTNGRAGTPTVNDPALEEPPKLPKKRTKFELAMAMAHDEVAS”, which “soluble on expression in E. coli” value is on record?
**A.** not soluble

**Q.** For “MAHHHHHHMEAFAITPLAEDDTTFVKDAQQFLAVIADMQREAEQRRCLLDDLRQKEAAAEMELEKCLAVREAVVARMAHTKAEGLELQSEYKALTTQQRAVEAEVLELRRQKSHWKKVLQEFQGSSSSSHLLGSGNTDGATVKSASSLDRALHAWSQLPHGSMFLKELKKTLTEFVAELAVNAGSNTNDNSNTTHNGTSTEYTTAFLDPSSVFPHLPPLSKVEEAIILLIPFSA”, which “soluble on expression in E. coli” value is on record?
**A.** not soluble

**Q.** Which “soluble on expression in E. coli” value does the source give for “MAHHHHHHMEALETLRSIAPVSSTEEIQAMIKSAKNAREVRMVLERIVYTHHLCFDLLNGHGYRVAVLQTLTAVAPHASCMHEWFDCVARFRRLGFVLTRTYAAEGFTTIRQWLSHEFFHRGRSPSLVTEGTAHIKELMQWCLEDRLVFDHVLYTRIVFLLTMIVSYLDRQNLYRASFPEDFAKRDGIVVEWIVTNERCVDFDECVLQCDAVMEELLEQMRQDIPSRPPFSFMYRLADYYFATDNVEKMIAVMEDAESYGVSVAESTTAKLMQMACAFNSPQVPELLLRWRVLPPQCVLATPDMSRLLFFYSRSGGGLPCPHCGEAYNHRNVSVYCWLQTPPHQRQCPALRKARVQKGELEESRELPQNADWSAQAFGLFELSRARAIEWTAVEWRGFLLCCIFSPRAMEAKALMDQYLDVTEMDDFLRAACIRLLRHHAPAEAWPTLKKWKQQQCNMSPIALQEALMAASMVADAATRLEHMKAVWQLLLEKDSYVMPLTRRFYQRRMEELATSYAAAAASGDGKESQGGLATEREEAQLMQRVVEMQPRHVSLLDMKDSAADFVVGTRRKNVYRPR” here?
**A.** not soluble
